# T1: KLHL20 Kelch domain (human, UniProt Q9Y2M5 303-605)
# T1 construct: Kelch domain of human KLHL20, Uniprot Q9Y2M5 isoform 1, M303-E605; structure traced from residues 317 to 601; Used for SPR (amine-coupled) and crystallisation; also called untagged KLHL20 Kelch; source: E. coli BL21(DE3)R3-pRARE2, purified (nickel sepharose, size exclusion, anion exchange)
# T1 sequence (looked up): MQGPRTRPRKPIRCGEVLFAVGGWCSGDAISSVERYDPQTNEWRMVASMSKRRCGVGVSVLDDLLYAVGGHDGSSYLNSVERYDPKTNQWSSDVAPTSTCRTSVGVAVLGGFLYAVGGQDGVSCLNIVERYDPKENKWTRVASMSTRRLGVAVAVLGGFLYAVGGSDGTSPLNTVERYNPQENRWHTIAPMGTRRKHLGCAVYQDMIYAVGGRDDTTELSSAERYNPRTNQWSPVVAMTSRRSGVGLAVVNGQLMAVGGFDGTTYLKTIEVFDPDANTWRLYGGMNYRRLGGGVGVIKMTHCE
# Target: T1, KLHL20 Kelch domain
# Assay: crystal structure; KLHL20 Kelch domain 12 mg/mL with 3 mM DAPK1 peptide; sitting drop, 2 M sodium chloride, 0.1 M acetate pH 4.5, 20°C; 1.1 Å
# Details: both partners purified
binder,measurement,value
"LGLPDLVAKYN (also called LT1342; source: synthetic peptide, bought: LifeTein) [11-residue DAPK1 peptide (crystallization peptide)]",binding result,binds
